Data as given in patent US20230391882A1 (NUMAB THERAPEUTICS, published 2023).
Substitutions are numbered along the chain they refer to. Read-outs that look alike come from different tables or passages of the source.

Columns and labels:
human PDL1 [1] = molecular target: T1, human PDL1 (human, UniProt Q9NZQ7 19-238, limits assumed); test: cell-based or functional assay
[2] = molecular target: T2, human CD137 on the transgenic NF-kB Jurkat reporter cell line (human, UniProt Q07011 24-255); test: cell-based or functional assay
[3] = molecular target: T3, mesothelin (MSLN) on target cells (H226, MeT-5A) (UniProt Q13421 37-598, limits assumed); test: cell-based or functional assay
[4] = molecular target: T3, mesothelin (MSLN) on target cells …; test: cell-based or functional assay; remark: listed apart in the source
[5] = molecular target: T3, mesothelin (MSLN) on target cells …; test: cell-based or functional assay; remark: listed apart in the source
[6] = molecular target: T3, mesothelin (MSLN) on target cells …; test: cell-based or functional assay; remark: listed apart in the source
[7] = molecular target: T3, mesothelin (MSLN) on target cells …; test: cell-based or functional assay; remark: listed apart in the source
[8] = molecular target: T3, mesothelin (MSLN) on target cells …; test: cell-based or functional assay; remark: listed apart in the source
[9] = molecular target: T3, mesothelin (MSLN) on target cells …; test: cell-based or functional assay; remark: listed apart in the source
[10] = molecular target: T3, mesothelin (MSLN) on target cells …; test: cell-based or functional assay; remark: listed apart in the source
[11] = molecular target: soluble mesothelin (sMSLN) (UniProt Q13421 296-580, limits assumed); test: cell-based or functional assay
[12] = molecular target: T3, mesothelin (MSLN) on target cells …; test: cell-based or functional assay; remark: listed apart in the source
[13] = molecular target: T3, mesothelin (MSLN) on target cells …; test: cell-based or functional assay; remark: listed apart in the source
[14] = molecular target: recombinant human mesothelin (human MSLN) (human, UniProt Q13421 296-580, limits assumed); test: KD ratio told in running text; method not given
human PDL1 [15] = molecular target: T1, human PDL1; test: cell-based or functional assay; remark: listed apart in the source
[16] = molecular target: T2, human CD137 on the transgenic NF-kB …; test: cell-based or functional assay; remark: listed apart in the source
human PDL1 [17] = molecular target: T1, human PDL1; test: cell-based or functional assay; remark: listed apart in the source
[18] = molecular target: T2, human CD137 on the transgenic NF-kB …; test: cell-based or functional assay; remark: listed apart in the source

B1: PRO1480 (38-27-A11 sc02 scDb-i/37-20-B03 sc09.1 scDb-o/19-01-H04 sc03 scFv) (other)
chain: DIQMTQSPASLSASVGDRVTITCQASQSIGTYLAWYQQKPGKPPKLLIYRAFILASGVPSRFSGSGSGTDFTLTISSLQPEDFATYYCQSNFYSDSTTIGPNAFGTGTKVTVLGGGGGSEVQLVESGGGLVQPGGSLRLSCAASGFSFSANYYPCWVRQAPGKGLEWIGCIYGGSSDITYDANWTKGRFTISRDNSKNTVYLQMNSLRAEDTAVYYCARSAWYSGWGGDLWGQGTLVTVSSGGGGSGGGGSGGGGSGGGGSIQMTQSPSSLSASVGDRVTITCQASQSISNRLAWYQQKPGKAPKLLIYSASTLASGVPSRFSGSGSGTDFTLTISSLQPEDFATYYCQSTYYGNDGNAFGTGTKVTVLGGGGGSEVQLVESGGGLVQPGGSLRLSCAASGFSFNSDYWIYWVRQAPGKGLEWIASIYGGSSGNTQYASWAQGRFTISRDNSKNTVYLQMNSLRAEDTAVYFCARGYVDYGGATDLWGQGTLVTVSSGGGGSGGGGSIQMTQSPSSLSASVGDRVTITCQSSESVYSNNQLSWYQQKPGQPPKLLIYDASDLASGVPSRFSGSGSGTDFTLTISSLQPEDFATYYCAGGFSSSSDTAFGGGTKLTVLGGGGGSGGGGSGGGGSGGGGSEVQLVESGGGLVQPGGSLRLSCAASGFSLSSNAMGWVRQAPGKGLEYIGIISVGGFTYYASWAKGRFTISRDNSKNTVYLQMNSLRAEDTATYFCARDRHGGDSSGAFYLWGQGTLVTVSS
IC50 (read off the curve); NFAT reporter gene assay, blocked ligand PD-1 (human PDL1 [1]): ~500 pM
EC50 (read off the curve); NF-kB reporter gene assay [2]: ~70 pM

B2: PRO2000 (biMSLNlow affinity x CD3 x hSA) (other)
chain 1: DIQMTQSPSSLSASVGDRVTITCQASQNIYSNLAWYQQKPGKAPKLLIYDASDLASGVPSRFSGSGSGTDFTLTISSLQPEDFATYYCQQVRSSSDIDNPFGTGTKVTVLGGGGGSGGGGSGGGGSGGGGSQVQLVESGGGLVQPGGSLRLSCAASGFSLSSYAMGWVRQAPGKGLEWIGYISTINNTYYASWAKGRFTISRDNSKNTVYLQMNSLRAEDTAVYYCAREIRSGWVDYGFSIWGQGTLVTVSSGGGGSGGGGSEVQLVESGGGLVQPGGSLRLSCAASGFSLSSYDMSWVRQAPGKGLAWIGASYASGPTYYASWAKGRFTISRDNSKNTVYLQMNSLRAEDTATYFCARGGWTGTSHSNIWGQGTLVTVSSGGGSGGGSEVQLVESGGGLVQPGGSLRLSCAASGFSFSSSYWICWVRQAPGKCLEWVGCVFTGDGTTYYASWAKGRFTISRDNSKNTVYLQMNSLRAEDTATYFCARPVSVYYYGMDLWGQGTLVTVSS
chain 2: DIQMTQSPSSLSASVGDRVTITCQASQNIYSNLAWYQQKPGKAPKLLIYDASDLASGVPSRFSGSGSGTDFTLTISSLQPEDFATYYCQQVRSSSDIDNPFGTGTKVTVLGGGGGSGGGGSGGGGSGGGGSQVQLVESGGGLVQPGGSLRLSCAASGFSLSSYAMGWVRQAPGKGLEWIGYISTINNTYYASWAKGRFTISRDNSKNTVYLQMNSLRAEDTAVYYCAREIRSGWVDYGFSIWGQGTLVTVSSGGGGSGGGGSDVVMTQSPSSLSASVGDRVTITCQASQIISSRSAWYQQKPGQPPKLLIYQASKLASGVPSRFSGSGSGTDFTLTISSLQPEDFATYYCQCTYIDSNFGAFGCGTKLTVLGGGSGGSDIQMTQSPSSLSASVGDRVTITCQSSQSVFSNNYLAWFQQKPGQSPKRLIYSASTLASGVPSRFSGSGSGTDFTLTISSLQPEDFATYYCLGSYACSSADCYVFGTGTKVTVLG
EC50 (read off the curve); specific killing of H226 cells, in presence of 50 ng/ml sMSLN [3]: ~30 pM
EC50 (read off the curve); activated CD8+ cells (CD69+) with H226 cells, with 500 ng/ml sMSLN [4]: ~40 pM
EC50 (read off the curve); activated CD8+ cells (CD69+) with H226 cells, with 50 ng/ml sMSLN [5]: ~8 pM
EC50 (read off the curve); specific killing of MeT-5A cells (low MSLN) [6]: ~100 pM
EC50 (read off the curve); specific killing of H226 cells (high MSLN) [7]: ~0.07 pM
EC50 (read off the curve); activated CD8+ cells (CD69+) with H226 cells, without sMSLN [8]: ~2 pM
EC50 (read off the curve); specific killing of H226 cells, in presence of 500 ng/ml sMSLN [9]: ~200 pM
T-cell driven cytotoxicity assay: EC50 for killing high MSLN expressing target cells against EC50 for killing MeT-5A cells [10]: ≥ 25 fold
specific killing of high MSLN expressing H226 cells by PBMCs in the presence of human serum albumin; killing potency against that of PRO1872 [10]: 75 fold
decrease of potency of T-cell driven target cell killing in the presence of 500 ng/ml soluble MSLN [11]: 17 fold
increase of EC50 for killing high MSLN expressing target cells in the presence of 50 ng/ml sMSLN [11]: ≤ 6 fold
increase of EC50 for killing high MSLN expressing target cells in the presence of 500 ng/ml sMSLN [11]: ≤ 40 fold
EC50 (read off the curve); specific killing of H226 cells, no sMSLN [12]: ~10 pM

B3: PRO1872 (MSLN x CD3 x hSA) (54-22-H03-sc01 scFv/28-21-D09-sc04 scDb-i/23-13-A01-sc02 diS scDb-o) (other)
chain: DVVMTQSPSSLSASVGDRVTITCQASQIISSRSAWYQQKPGQPPKLLIYQASKLASGVPSRFSGSGSGTDFTLTISSLQPEDFATYYCQCTYIDSNFGAFGCGTKLTVLGGGGGSEVQLVESGGGLVQPGGSLRLSCAASGFSLSSYDMSWVRQAPGKGLAWIGASYASGPTYYASWAKGRFTISRDNSKNTVYLQMNSLRAEDTATYFCARGGWTGTSHSNIWGQGTLVTVSSGGGGSGGGGSGGGGSGGGGSDIQMTQSPSSLSASVGDRVTITCQSSQSVFSNNYLAWFQQKPGQSPKRLIYSASTLASGVPSRFSGSGSGTDFTLTISSLQPEDFATYYCLGSYACSSADCYVFGTGTKVTVLGGGGGSEVQLVESGGGLVQPGGSLRLSCAASGFSFSSSYWICWVRQAPGKCLEWVGCVFTGDGTTYYASWAKGRFTISRDNSKNTVYLQMNSLRAEDTATYFCARPVSVYYYGMDLWGQGTLVTVSSGGGGSGGGGSDIQMTQSPSSLSASVGDRVTITCQASESIGNYLAWYQQKPGKAPKLLIYSASTLASGVPSRFSGSGSGTDFTLTISSLQPEDFATYYCQSTDYGDSYIFGTGTKVTVLGGGGGSGGGGSGGGGSGGGGSEVQLVESGGGLVQPGGSLRLSCAASGISVSNDYYMCWVRQAPGKGLEWIGCISTYIGNTHYASWAKGRFTISRDNSKNTVYLQMNSLRAEDTAVYYCAKNAGYPGYRYAIDLWGQGTLVTVSS
notes: also called MSLNlowKDxCD3xhSA
EC50 (read off the curve); specific killing of H226 cells, in presence of 50 ng/ml sMSLN [3]: ~600 pM
EC50 (read off the curve); activated CD8+ cells (CD69+) with H226 cells, with 500 ng/ml sMSLN [4]: ~1000 pM
EC50 (read off the curve); activated CD8+ cells (CD69+) with H226 cells, with 50 ng/ml sMSLN [5]: ~200 pM
EC50 (read off the curve); activated CD8+ cells (CD69+) with MeT-5A cells (low MSLN) [13]: ~10 pM
EC50 (read off the curve); specific killing of MeT-5A cells (low MSLN) [6]: ~10 pM
EC50 (read off the curve); specific killing of H226 cells (high MSLN) [7]: ~5 pM
EC50 (read off the curve); activated CD8+ cells (CD69+) with H226 cells, without sMSLN [8]: ~20 pM
EC50 (read off the curve); specific killing of H226 cells, in presence of 500 ng/ml sMSLN [9]: ~5000 pM
increase of EC50 for killing high MSLN expressing target cells in the presence of 50 ng/ml sMSLN [11]: ~8 fold
increase of EC50 for killing high MSLN expressing target cells in the presence of 500 ng/ml sMSLN [11]: > 75 fold
EC50 (read off the curve); specific killing of H226 cells, no sMSLN [12]: ~50 pM
fold better binding affinity (KD) than the MSLN-BDs of PRO2000, PRO2562, PRO2566 and PRO2567 [14]: > 5 fold

B4: PRO1124 (38-02-A04 sc06 Full scDb-i/33-03-G02 sc01 scDb-o) (bispecific antibody)
chain: DIQMTQSPSSLSASVGDRVTITCQASQSINDYLAWYQQKPGKAPKLLIYKASTLASGVPSRFSGSGSGTDFTLTISSLQPEDFATYYCQQGYIITDIDNVFGTGTKVTVLGGGGGSQVQLQESGPGLVKPSETLSLTCKASGFSFSNSYWICWVRQPPGKGLEWIGCTFVGSSDSTYYANWAKGRVTISKDSSKNQVSLKLSSVTAADTAVYFCARHPSDAVYGYANNLWGQGTLVTVSSGGGGSGGGGSGGGGSGGGGSLQMTQSPSSLSASVGDRVTITCQASQSINNVLAWYQQKPGKPPKLLIYRASTLASGVPSRFSGSGSGTDFTLTISSLQPEDFATYYCQSSYGNYGDFGTGTKVTVLGGGGGSQVQLQESGPGLVKPSETLSLTCKVSGFSFSSGYDMCWIRQPPGKGLEWIGCVVAGSVDITYYASWAKGRVTISVDSSKNQFSLKLSSVTAADTAVYYCARKDAYSDAFNLWGQGTLVTVSS
IC50 (read off the curve); NFAT reporter gene assay, blocked ligand PD-1 (human PDL1 [15]): ~1000 pM
EC50 (read off the curve); NF-kB reporter gene assay, rising part of the curve [16]: ~100 pM

B5: PRO885 (38-02-A04 sc01 scDb-i/33-03-G02 sc01 scDb-o) (bispecific antibody)
chain: B4 chain with A140V, V154I, K190V, V197F, F213Y, L261I, P302A
IC50 (read off the curve); NFAT reporter gene assay, blocked ligand PD-1 (human PDL1 [17]): ~2000 pM
EC50 (read off the curve); NF-kB reporter gene assay, rising part of the curve [18]: ~300 pM
